One may read the Kd as the concentration at which binding is half-saturated. Low values mean higher affinity, high ones lower affinity.

The test concerns the target meditope-enabled trastuzumab Fab fragment. In words: SPR. In general terms: In SPR one partner is held on a chip, and binding of the other changes the refractive index at the surface.

Sequence of meditope-enabled trastuzumab Fab fragment (chain, as listed by the source, chain 1 of 2): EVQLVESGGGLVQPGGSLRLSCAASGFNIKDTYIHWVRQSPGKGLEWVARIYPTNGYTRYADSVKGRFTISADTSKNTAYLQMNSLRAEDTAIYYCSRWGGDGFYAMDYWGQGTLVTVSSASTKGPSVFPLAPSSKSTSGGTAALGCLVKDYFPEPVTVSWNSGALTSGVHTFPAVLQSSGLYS
Sequence of meditope-enabled trastuzumab Fab fragment (chain, as listed by the source, chain 2 of 2): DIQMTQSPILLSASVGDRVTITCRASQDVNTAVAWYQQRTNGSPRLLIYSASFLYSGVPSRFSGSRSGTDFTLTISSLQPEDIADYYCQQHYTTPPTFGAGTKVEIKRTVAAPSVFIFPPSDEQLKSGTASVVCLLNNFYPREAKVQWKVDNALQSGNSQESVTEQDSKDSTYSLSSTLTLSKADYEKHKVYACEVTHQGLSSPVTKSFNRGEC

For CQFDLSTRRLKC (modifications not checked) [cQFD meditope], the dissociation constant (Kd) came to 1000 nM.

(Values after patent publication EP3741773A1.)
